How the values were obtained:
[1] = system: RBD of SARS-CoV-2 Delta strain B.1.617.2, on infectious virus
[2] = system: RBD of SARS-CoV-2 Delta strain
[3] = system: RBD of SARS-CoV-2 Omicron strain
[4] = system: RBD of SARS-CoV-2 Omicron strain B.1.1.529, BA1, on infectious virus

gene recombinant of human PDI (protein disulfide isomerase)
antiviral activity (viral genome amount in supernatant of infected airway organoids) [1]: PDI showed the high antiviral activity against both the Delta strain and the Omicron strain.
disulfide bond cleavage activity (remaining rate of native RBD; maleimide-PEG 2k, SDS-PAGE) [2]: PDI showed an activity to cleave disulfide bonds in both the RBD of the Delta strain and the RBD of the Omicron strain.
disulfide bond cleavage activity (remaining rate of native RBD; maleimide-PEG 2k, SDS-PAGE) [3]: PDI showed an activity to cleave disulfide bonds in both the RBD of the Delta strain and the RBD of the Omicron strain. The disulfide bond cleavage activity was particularly high in the RBD of the Omicron strain.
antiviral activity (viral genome amount in supernatant of infected airway organoids) [4]: PDI showed the high antiviral activity against both the Delta strain and the Omicron strain.
